The values below come from patent USRE50618E1, “Anionic-core composition for delivery of therapeutic agents, and methods of making and using the same” (PharmaIN Corporation, priority 2009, dated 2025).

The conditions of data set [1]: cited from earlier work; for Isoelectric Point: peptide or protein load molecule, Table 7; for isoelectric point (pI): stated in the description.
A short description of data set [2]: Lysostaphin PK study (serum lysostaphin activity assay). Type of data set: in vivo. Conditions: Sprague Dawley rats, i.v. bolus 12 mg lysostaphin/Kg; lysostaphin 50% of carrier weight. The method, then: Four carriers were selected for PK study. CSPEG106G, HPPEG105G, 20PLPEG1030-DTPA, and 20PLPEG1030-DTPA-SO were loaded with Lysostaphin equivalent to 50% of the carrier weight. These formulations were obtained by dissolving together an appropriate amount of carrier and Lysostaphin in water and incubating for two hours followed by lyophilization. Each lyophilized formulation (including unformulated lysostaphin alone) was dissolved in saline and administered to Sprague Dawley rats (n=4) by slow (at least 1 min) i.v. bolus (12 mg lysostaphin/Kg) via the lateral tail vein. Blood samples were taken from the orbital sinus at 5 m, 15 m, 30 m, 60 m, 120 m, 4 h, 6 h, 24 h, 32 h (30 h), and 48 h and placed in tubes containing Protease Inhibitors (AEBSF, Aprotinin, E-64, EDTA, and Leupeptin). Sera were obtained by centrifugation at 13,000 rpm. All the sera were stored at −80° C. until used in the assay. 100 of serum was used in this assay for each time point. Lysostaphin's activity was measured by activity assay as follow: Stock buffer (10×) was prepared to contain 1M MOPS/10% Tween (by wt.)/5 mM EDTA/pH 7.3. The final reaction mixtures (2000) in black 96-well plate were prepared to contain 5 μg substrate, 100 mM MOPS, 1% Tween20, 0.5 mM EDTA, pH 7.3, and 100 of serum samples. The samples were added last and after addition the wells were mixed and bubbles in the solution was removed using pipette tip wet with ethanol. Fluorescence (Ex485 nm/Em535 nm) increase was monitored for two hours using Chameleon 96-well microplate fluorometer (Bioscan) every 7.5 minutes for 2 hours. The substrate gave fluorescence product when lysostaphin proteolytically cleaved it.

The conditions of data set [3]: rat, in vivo, 10 mg/kg.
In data set [4] the test system is bacteria. Conditions: cited from earlier work.
Data set [5] deals with adenoviral infection. Conditions: cited from earlier work.

Where “and” joins values, the source holds several entries; their conditions need not be identical. Equal entries are not always repeated. Where two headings read alike, the source gives them in different places.

Regarding “GLP1: peptide load molecule with isoelectric point 5.4 used in Table 7”, in data set [1], the “Isoelectric Point” value is reported as 5.4.

On to “Lysostaphin: 25-kDa peptidase produced by Staphylococcus simulans, cleaves glycine-glycine bond of Staphylococcus aureus cell wall cross-bridge”, for which, in data set [1], the “Isoelectric Point” value is given as 9.56 and the “isoelectric point (pI)” value is reported as 9-10. Further, in data set [1] (listed as lysostaphin), the “isoelectric point (pI)” value is 9.56. Besides, in data set [2], the AUC0 to last was 64.2 hr (μg/ml), the “AUC0 to ∞” value is listed as 67 hr (μg/ml), the C0 came to 301 µg/mL and the Mean residence time was 0.984 h. The “Terminal t1/2” value in data set [2] was 1.53 h.

platelet derived growth factor: the “isoelectric point (pI)” value in data set [1] was 8.5-10.

For the molecule Fibroblast growth factor, the “isoelectric point (pI)” value in data set [1] was 8.0-9.0 and 9.6.

Turning to “Heparin-binding EGF: EGF-related growth factor that signals through the EGF receptor and binds heparin”, the “Isoelectric Point” value in data set [1] was 8.56.

Vascular endothelial growth factor: in data set [1], the “isoelectric point (pI)” value is 8.0-9.5.

Turning to “erythropoietin without sialic acid: erythropoietin without sialic acid, listed as load molecule”, the “isoelectric point (pI)” value in data set [1] was 8.5.

For “H-RRRPRPPYLPRPRPPPFFPPRLPPRIPPGFPPRFPPRFP-OH [PR39]”, in data set [3], the level at 24 h worked out at 370 ng/mL and the level at 48 h came out at 30 ng/mL. Also, the “Isoelectric Point” value in data set [1] is given as 9.96.

As for “(klaklak)2: synthetic 14 amino acid D-peptide, programmed cell death-inducing sequence (KLAKLAKKLAKLAK; D-amino acids, C-terminal amide)”, in data set [4], the “concentration that kills bacteria relative to that required to kill eukaryotic cells” value is 1%.

Take “ACYCRIPACI-AGERRYGTCI-YQGRLWAFCC [HNP-1]”: in data set [5], the “reduction of adenoviral infection” value is “more than 95%”.

Turning to “Nerve growth factor: growth factor listed as basic protein load molecule”, the “isoelectric point (pI)” value in data set [1] is on record as 8.5-9.5.

B1: Interferon gamma: type II interferon with anti-viral and anti-scarring activity (protein, UniProt P01579 24-161, looked up)
Interferon gamma: QDPYVKEAENLKKYFNAGHSDVADNGTLFLGILKNWKEESDRKIMQSQIVSFYFKLFKNFKDDQSIQKSVETIKEDMNVKFFNSNKKKRDDFEKLTNYSVTDLNVQRKAIHELIQVMAELSPAAKTGKRKRSQMLFRG
Consider B1, for which the “isoelectric point (pI)” value in data set [1] is recorded as 8.5-9.5.
